Target: T1, HA head domain of A/Texas/50/2012(H3N2), monomeric (Influenza A virus A/Texas/50/2012(H3N2), strain)
T1 construct: also called monomeric HA heads
Assay: BLI
Settings: both partners purified

Binder | binding result
D2 H1-1/H3-1 Fab, His-tagged (binding studies) (Fab, V domains shown, not shown: His6, C-terminal, kept) VH: QVQLVQSGGGLVRPGGSLRLSCAASGFTFSSAWMTWVRQAPGKGLEWVANIKEDGSEKYYVDSVKGRFSISRDNAKNSLYLQISSLRAEDTAVYYCARRFVERLWGQSKPYDAVDIWGQGTMVTVSG VL: DIQMTQSPSSLSASVGDRVTITCRASQSISNYLNWYQQKPGKAPKLLIYVASNLQSGVPSRFSGSGSGTDFALTISSLQPEDFASYYCQQSYSPVTTFGGGTKVEIK | binds
D1 H1-17/H3-14 Fab, His-tagged (binding studies) (Fab, V domains shown, not shown: His6, C-terminal, kept) VH: QVQLQESGPGLVKPSESLSLTCSVSGGSVSSNLHYWSWIRQLPGKGLEWIGYISYTGSTKYNPSLNGRVTLSIDASKNQFSLELSSVTAADTAVYYCARDFFEKLIADDLNAFDIWGQGTMVTVSG VL: DIRVTQSPSSLSASVGDRVTITCRASQSISRSLNWYQQRPGKAPKFLIYAASNLQSGVPSRFSGGGSGTDFTLTISSLQPEDFATYYCQETYSRTFGQGTKADIK | binds
H2214 Fab, His tag removed (competitor in BLI) (Fab, V domains shown) VH: EVQLLESGGGLVQPGGSLRLSCAASGFTFNHYAMTWVRQAPGKGLEWVASSSGSGRSTYYTDSVKGRFSVSRDNSKNTLYLQMNSLRAEDTAVYYCAKSSNYYGSGSYSPDDYYHMDVWGQGTTVTVSG VL: EIVMTQSPDTLSVSPGERATLSCRASESISSNLAWYQQKPGQVPRLLIYGASTRATGVPARFTGSGSGTEFTLTISSLQSEDFAVYYCQQYNNRLPYTFGQGTKLEIK | binds
